Measured values from patent US20180119119.

What was measured:
Test in all cases: cell_activity
[1] = tested on: ExoS54-FLAG-TALEN2 (gfp/Venus right TALEN) (Artificial); settings: paired with TALEN1; T3SS protein injection into EB5 mESC, MOI 100, 3 h; about 30% at MOI 400; indels confirmed by sequencing
[2] = tested on: ExoS54-FLAG-HPRT1-T2 (HPRT1 right TALEN) (Artificial); settings: paired with HPRT1-T1; human iPSC, MOI 100, 3 h, after 6TG selection, no template; overall mutation efficiency about 1%
[3] = tested on: ExoS54-FLAG-HPRT1-T1 (HPRT1 left TALEN) (Artificial); settings: paired with HPRT1-T2; human iPSC, MOI 100, 3 h, after 6TG selection, no template; overall mutation efficiency about 1%
[4] = tested on: ExoS54-FLAG-TALEN1 (gfp/Venus left TALEN) (Artificial); settings: paired with TALEN2; T3SS protein injection into EB5 mESC, MOI 100, 3 h; about 30% at MOI 400; indels confirmed by sequencing

For “CTGGACGGCGACGTAAA (double strand) [gfp TALEN right half-site (top strand)]”, the activity (% GFP-negative cells) [1] was 20.
Sequence “GATGGGAGGCCATCACATTGT (double strand) [HPRT1 exon 2 TALEN right half-site (top strand)]” has an activity (% DNA lost XhoI site) [2] of 20.
With “GTAGGACTGAACGTCTTGCTC (double strand) [HPRT1 exon 2 TALEN left half-site]” the activity (% DNA lost XhoI site) [3] was 20.
For “TTCACCGGGGTGGTGCC (double strand) [gfp TALEN left half-site]”, the activity (% GFP-negative cells) [4] was 20.
